Laboratory results taken from the DeepSol protein solubility set.

Test: soluble on expression in E. coli; label from the status in PepcDB or PDB records

Sequence | soluble on expression in E. coli
MQTEGAQEMVLQDAVAGIYKKLVVDASGTQLLGAILVGDNSDYDALLHCYLNKTVLPDHAANLLFDTGMLDGEMPDSAIICSCHNVTKGDLVAEIQAGTTNLTDLKANTKAGTGCGGCSNMVKSVLDTQLAAMGVEVNNHLCEHFELSRQEMFHICQVEQIKDFDTLIALHGKGHGCDICKPTAASVFASLWNEHIMEPQHQSLQDSNDAFMANLQKDGSYSIVPRVPGGEITPDKLIVLGEVAQQYDLYTKITGGQRVDLFGAQLEQLPEIWQTLIDAGFETGHAYGKSVRTVKSCVGSTWCRYGVDDSVGLAIELENRYKGLRAPHKLKFAVSGCTRECAEAQSKDIGVIATENGWNLYVCGNGGMRPRHADLFASDLSKSELITMIDRVLMFYVSTADRLQRTSVWMENMEGGLDYLKQVILDDSLNLCDSLDEQMARVVDTYQCEWKSTLDNPQKLQRFRPFLNSTSGSKVLPYQRVRGQRIPVKQEV | not soluble
MQTQKPVFSEVTVHDPSIIKANGTYYVFGSHLASAKSTDLMNWTQISSSVHDGNPLIPNVYEELKETFEWAESDTLWAPDVTQLEDGKFYMYYNACRGDSPRSALGLAVADDIEGPYKNKGIFLKSGMDGISNDGTPYDATKHPNVVDPHTFFDQNGKLWMVYGSYSGGIFILEMDKKTGFPLPGQGYGKKLIGGNHSRIEGAYILYHPETQYYYLYMSFGGLAADGGYNIRVARSKNPDGPYYDAEGHAMIDVRGKEGTLFDDRSIEPYGVKLMGNFSFNNKNGYVSPGHNSAFYDEKSGKSYLIFHTRFPGRGEEHEVRVHQLLMNKQGWPVVAPHRYAGEKLEKVKKSDVIGDYELVRHGKDISADIKESKEIRLNQNGKITGAVAGTWKNTGHNKIELKIDGKTYDGVFLRQWDAASERKVMTFSALSREGDAVWGSSLKRAEFLEHHHHHH | soluble
MQVCRQWVTLSLYNNGKWPKMKYQQLENLECGWKWQYLINKWKDGEPVTRYIDKSEIEAAVQKLRAIEHEPTHVLSWIEEHMSSELDNKLKQAIRAKRKRHFNAEQIHTRKKSIDLDYRVWEKLSLKANELGCTLSDAIEYLLSEASRSEKASKTVNSLKEDLSRLLAE | not soluble
MQVIHQYSNKGGKYQNRYDVSILVNGLPLVHVELKKRGVAIREAFNQIKRYKRDSFSAEDGLFDFVQIFVISNGTSSKYYSNTTRIAQLEKNHKADTFEFTNYWADSKNHNIEDLMDFAKAFFAKRSLLNVLTCYCVFTSEEVLLVMRPYQIVAAERILEKIKTAQNSKTKNQSKGYIWHTTGSGKTLTSFKSATLAKELESVSKVLFVVDRKDLDYQTMKEYDKFQKDCANSNTSTKILKEQLEDSNAKIIITTIQKLDKFVKSHKGHAIFNEEVVMIFDECHRSQLGSMHQAITKAFKKYHLFGFTGTPIFAANCDKNNPLGTTEQKFGKCLHQYTIIDAIRDKNVLPFRVEYHNTIKAKEDIKDNKVRAVDEKNALLDTRRIKEITKCILERFNQATKNKKFNSILACSSIEALKKYYQAFKEEKHDLKIAAIFSYSANEEIDTLEDENNESACRLDKSSRDFLEGAIADYNGMFGVSFDTSDQKFQSYYKDLSQKMKERKIDLLMVVNMFLTGFDATRLNTLWVDKNLKYHGLIQAFSRANRILDSVKTHGNIVCFRDLEQDLNDALMLFGNKDAQSIALLRKYEDYLKGYTDNNKEYEGYEGLIKRLLTEFPLKEPIVSESQKKDFIKLFGKILKLENILNSFENFKKDDYINPRDFQDYQSKYLDFYDAMRSEKGKDKEEINDDLIFEIELIKQVEVNIDYILNLIEEFAKEHGVEIQGVKTKIEPIINSSIELRNKKDLIMDFIDKYNKDQEVHAHFQDYIHQKREEEFQNIIEENRLNEEKAYSFMQHAFKGGEISFSGTEFPKIIEEKPSMFGKNSRYQEVKEKVAASLSRFFHRFCDLTSAIFKKNEVKKDEVNEK | not soluble
MQYHYQWLTPFDAKRTTVVCLHGFTGTLATFAAVFPSQTPYNVLGIDLPGHGATASLVAPERYTMKQVCHDIAELTESLNLPCFCLLGYSMGARTALGFALHYPQKVQHLLLESGSPGLATAAERQARICQDHRLAERLLEEPLVDFIDFWQELPLFQTQKALSVAQQMAIRQERLSQSAFGLVSSLWYMGTGAQESYWERLAELQPIPTDLLVGGEDQKFIGIAKKMQARQPLLRLTIFPEAGHCIHLEQPTIFYEKVTALLEGAI | not soluble
MQYSMGIDAGGTYTDSIIIRDSDGKVMDSNKALTTYPDLLAGIKNSIDGLDEQYLKDVKMVSVSTTLATNTILEKNGYPVGLILVGDYEVPERMQAEYYTVVKGGHDHHGAELTSLDMEAVEAFVNKVKDRVSAFAVSSYFSIRNPAHELAIKARLKELGFSVVCGHELSLDLGAYERGITAYLNAQLIPIASQFILSIREEIRRRGMDARLLMLKCDGSVVGINEALEKPIESIFSGPAASLVGASHLSGLETCAVIDVGGTSTDVSMLENGLPELCSEGAVVGGWQTKVKAIRMETSAMGGDSHVWVKNMKINIGPRRVIPLCVAAVKYPGFLEILKKGRIPGTMHLEENIQPTKFFIRTGLEASNLGSYEKELFDRIGDTPASLNDIFWETQKTLSPGLLDSLLRKRLIQAIGFTPTDALHVLGEYRGWNTEASIAGAKLLERYTHKDYIESARALEHHHHHH | not soluble
MRAAFRTLGCKVNQVETEALLGFLKALEPEVVPLEAGGADLVVINSCAVTTTAEADTRKEVRRARRYNPHAFIVVTGCYAELAPEVLKELGADAVVPNARKAELPRVILERFGLPSDPITTPPNEFWGAGERGLLNSRVRAFLKVQDGCQAGCAYCIIPRLRGKERHRDHREALAEAEALLRMGIKEIVLTGVRLGSYKGHPRGLAGLVEDLYHLGAKVRLSSIEPEDTGEDLLKVIGRYAPEVRPHLHLSLQTGSDRLLKLMGRRYDKAYYRELVQRAYDLIPGFALTTDVIAGLPTETEEEHRETLAFLEELRPTRVHAFTYTPRPKTRAASMPQVPPEVRKRRTKELIALAQRLAEERIRPRLGERVEVLVERVQGGEALGHTPDYYEARLEGEARPGETVWARVHGVEGYVLLGRVEGVKEGARGPLELPVR | soluble
MRAEVKEICKALHLAYIADRFEEVRFETKEQFLRDVLALELSCCQEAKQARLIKKAKFRELKWLKDYEWSGHIHWPATTSREELCDLRFLERKQNVLLLGSPGTGKTHLATALGIQACQQGHEVRFFRVADLVAQLEEALKNGTLGRLKRSLDTCELLILDELGYVPFQKQGSELLFHIIADCYERKSVMVTSNLEFGQWNRVFGDNRLTAALVDRLVHHAHILAFTGESYRLRNALSAIQPSSASGLEP | not soluble
MRASPTSPPEQVVVDASAMVDLLARTSDRCSAVRARLARTAMHAPAHFDAEVLSALGRMQRAGALTVAYVDAALEELRQVPVTRHGLSSLLAGAWSRRDTLRLTDALYVELAETAGLVLLTTDERLARAWPSAHAIG | soluble
MRCPFCGAEDTSVVDSRISEEGARIRRRRRCVECEKRFTTYETVELRFPQVIKQDGNRVEFNREKLYTSFARALHKRPVPTGQVDAAIERILQKLLGSGVQEISSRTIGEWVMQELYSLDKVAYIRFASVYRSFEDVGDFQEVIREVQSSPQNGDGPSS | not soluble
MRDIVIIGHKAKTSGDFSLNDLPGSAGRMDILCRCVSSALFLSFGMRRDVNVHLLLLGEPDPGKIIRFEGLHLRYLNPDERSSGSLIQKALLKNAAGQDIRSTPGVWTRTGDLNSLLASFEGRTLLYLREDGKDFREIAREIQDPVFILGDHTGVTEEEEKQLLEAGAQVISVGPISLHSNHCITLIHNELDRAEAERGEIPGGNISRPED | not soluble
MREAMYWKPLGDGRVRCELCPLRCIIDEGKRGSCKIRINKGGKLYTLNYGKVSSIALDPIEKKPLFHFWPGSCALSIGTVGCNMHCKHCQNWEISQADESFPYLQDATPEAIVSLAKHYECESIAYTYNEPTIWYEFVLDTAKLARKEGLNNILVTNGYINEEPFRELAPYIDAMNIDIKAFDDKFYMKIASVPSGEPSRRIAEIAKKEFKIHVELTYLIIPTLNDKEEEIREFARWVVENLGDDTPVHFSRFFPHYKLLNLPPTPIETLEKAYKIAKEEGLKFVYLGNVPGHPGENTYCPSCGKLLIERWGFDIIRYDIVDGKCKYCGEKIPIVGKYQKKKYRGMWW | soluble
MREIINKLNPIIIDKADKKFGVSRILKKYDGKPVYIKDVNGFEVVGNLCSRETLSKIFNVKKEDFIFFMLDAMEKEKEGKLKINNKLKEKYIVEIPENIKNWPIPIYYEKDAGAYITSGVVVVYDKDYGYNLSIHRILVKDDYLVIRMVEQRHLHFLYNKALKEKGYLDVAIVIGVHPAVLLAGSTSADITFDELKFAAALLGGEIGVFELDNGLLVPEAEFIIEGKILPEVDDEGPFVDITGTYDIVRKQPIIKIEKLYRKEKPIFHALLPGGIEHKTLMGMPQEPRILKGVRNTVPTVKNIVLTEGGCCWLHAVVQIEKRTEGDGKNAILAAFASHPSLKHVIVVDDDINIFDINDVEYAIATRVQGDKDIVIISGAKGSSLDPSSDLKNKLTAKVGVDATMSLIKGREHFERAKIPDKLEHHHHHH | soluble
MREKELKHIENLLLLKVKKEKIEETDKIKEYLKRFEDERRFDGIKESTIKSDLDRLRVFLDYCINYLGKNPEELKTSDFVKFFNYLDTVRKVSKSSQRKYFLLLKVFYRVLRMYNVIQEFVEESKDRKRFARIEIQHYDAVDAEMLNMILKKIIESGSRTRIRDALIIRLLWDTGCRVSEVLNLKYKDCDLDNGIFKIRNTKTHEERTVVCSSDTLELLRNYVQFNVRQGSDDYLFQNSQGGRVRKEWISEVFRKAVNELKEEGKIPKNRRIVIHSIRHGRAVDLLNKGVPIDIVKEYLGHKSMNTTLIYAHSKERAESLEFIKKLLRIQ | not soluble
MREYKVVVLGSGGVGKSALTVQFVTGTFIEKYDPTIEDFYRKEIEVDSSPSVLEILDTAGTEQFASMRDLYIKNGQGFILVYSLVNQQSFQDIKPMRDQIVRVKRYEKVPLILVGNKVDLEPEREVMSSEGRALAQEWGCPFMETSAKSKSMVDELFAEIVRQMNYSSLPEKQDQCCTTCVVQ | not soluble
MRFAVLGSGSQGNGTLIASGDTFILVDCGFSLRETERRLALLGVSAAQLSAVLVTHEHADHVHGVGLLSRRYNVPVYLSQGTLRGMRKPVEVAGFLACGQSLHIGSLEVTAARVEHDAYEPLQYVVSDGKRRFGMLTDLGSYDALLLERYQGLDALLIEANHCRDLLARGHYPAFLKQRVGGMQGHLNNHQAARLVHELGWNNLQHLVLAHLSSKNNLPHLARQCFVDTLGCDPDWLQVANQEHGLDWREIALEHHHHHH | soluble
MRFAVLGSGSRGNGTLVASNDTYVLVDCGFSLRETERRLARLGVAASQLSAILVTHEHADHVHGVGLLSRRYNVPVYLSSGTLRGMRKPVEVAGLLAGGESLQIGALDIDVVSVAHDALEPTQFVFSDGSRRFGLLTDLGSYCSNVLQRYQGLDALMIEANHCRDMLARGQYPVFLKQRVGCETGHLNNHQAASLVSELGWQDLQHLVLAHLSSKNNLPHLARQCFVDTLGCDPDWLQLADQDSGLDWRHIALEHHHHHH | not soluble
MRGFLKFAILAAVLLALAYGDDEDEEASELERRRIRNCPEVTFKRMTGCVWEFGRFLKKVLFLDLEQRTLDRFRKSCLSMAECFDLIECKETGKFSRGKRIKDSCDVMNYLSKDFVPCLKRLERLDPAPTCFNKWKPFSDLNEVGPDTTPEEMEELCKNMLGKDNCMKDLVSRTCGGVMSQELVDRFEATSVFKQCDAD | not soluble
